Results taken from article PMC5642273.

Substrate: CC(C)=CCC/C(C)=C/COP(=O)(O)OP(=O)(O)O
Test: purified protein
Settings: Mn2+

B1: (+)-limonene synthase [(+)-LS] (Citrus sinensis) (protein)
chain: RRSANYQPSIWDHDFLQSLNSNYTDETYKRRAEELKGKVKTAIKDVTEPLDQLELIDNLQRLGLAYHFEPEIRNILRNIHNHNKDYNWRKENLYATSLEFRLLRQHGYPVSQEVFSGFKDDKVGFICDDFKGILSLHEASYYSLEGESIMEEAWQFTSKHLKEMMITSNSKEEDVFVAEQAKRALELPLHWKAPMLEARWFIHVYEKREDKNHLLLELAKLEFNTLQAIYQEELKDISGWWKDTGLGEKLSFARNRLVASFLWSMGIAFEPQFAYCRRVLTISIALITVIDDIYDVYGTLDELEIFTDAVARWDINYALKHLPGYMKMCFLALYNFVNEFAYYVLKQQDFDMLLSIKHAWLGLIQAYLVEAKWYHSKYTPKLEEYLENGLVSITGPLIITISYLSGTNPIIKKELEFLESNPDIVHWSSKIFRLQDDLGTSSDEIQRGDVPKSIQCYMHETGASEEVAREHIKDMMRQMWKKVNAYTADKDSPLTRTTAEFLLNLVRMSHFMYLHGDGHGVQNQETIDVGFTLLFQPIPLEDKDMAFTASPGTKG
Km: 13.1 ± 0.6 µM
